Data from patent publication US20230272446A1 (University of Washington, published 2023).

Target: the molecule itself
Assay: analytical size exclusion chromatography with multi-angle light scattering (SEC-MALS); self-association (homodimer)

Protein	binding result
DHR49 (designed helical repeat protein 49) (other) MDSEEEQERIRRILKEARKSGTEESLRQAIEDVAQLAKKSQDSEVLEEAIRVILRIAKESGSEEALRQAIRAVAEIAKEAQDSEVLEEAIRVILRIAKESGSEEALRQAIRAVAEIAKEAQDPRVLEEAIRVIRQIAEESGSEEARRQAERAEEEIRRRAQGWLEHHHHHH	binds
DHR76 (designed helical repeat protein 76) (other) MNPELEEWIRRAKEVAKEVEKVAQRAEEEGNPDLRDSAKELRRAVEEAIEEAKKQGNPELVEWVARAAKVAAEVIKVAIQAEKEGNRDLFRAALELVRAVIEAIEEAVKQGNPELVEWVARAAKVAAEVIKVAIQAEKEGNRDLFRAALELVRAVIEAIEEAVKQGNPELVERVARLAKKAAELIKRAIRAEKEGNRDERREALERVREVIERIEELVRQGGWLEHHHHHH	binds
